{"source": "paper PMC9086285", "about": "“Catalytic Features and Thermal Adaptation Mechanisms of a Deep Sea Bacterial Cutinase-Type Poly(Ethylene Terephthalate) Hydrolase” (Frontiers in Bioengineering and Biotechnology, 2022)", "proteins": {"B1": {"name": "MtCut (Marinactinospora thermotolerans DSM 45154) (protein)", "chain": "NPYERGPAPTESSVTAVRGYFDTDTDTVSSLVSGFGGGTIYYPTDTSEGTFGGVVIAPGYTASQSSMAWMGHRIASQGFVVFTIDTITRYDQPDSRGRQIEAALDYLVEDSDVADRVDGNRLAVMGHSMGGGGTLAAAENRPELRAAIPLTPWHLQKNWSDVEVPTMIIGAENDTVASVRTHSIPFYESLDEDLERAYLELDGASHFAPNISNTVIAKYSISWLKRFVDEDERYEQFLCPPPDTGLFSDFSDYRDSCPHTT", "notes": "786 bp fragment, signal peptide removed, C-terminal His6 (pET22b(+), NdeI/XhoI), E. coli BL21(DE3), 34 kDa"}, "B2": {"name": "IsPETase (Pseudideonella sakaiensis) (protein)", "chain": "QTNPYARGPNPTAASLEASAGPFTVRSFTVSRPSGYGAGTVYYPTNAGGTVGAIAIVPGYTARQSSIKWWGPRLASHGFVVITIDTNSTLDQPSSRSSQQMAALRQVASLNGTSSSPIYGKVDTARMGVMGWSMGGGGSLISAANNPSLKAAAPQAPWDSSTNFSSVTVPTLIFACENDSIAPVNSSALPIYDSMSRNAKQFLEINGGSHSCANSGNSNQALIGKKGVAWMKRFMDNDTRYSTFACENPNSTRVSDFRTANCS", "notes": "purified enzyme; expression construct not described"}, "B3": {"name": "ICCG (unidentified prokaryotic organism; D238C/F243I/S283C/Y127G) (protein)", "chain": "SNPYQRGPNPTRSALTADGPFSVATYTVSRLSVSGFGGGVIYYPTGTSLTFGGIAMSPGYTADASSLAWLGRRLASHGFVVLVINTNSRFDGPDSRASQLSAALNYLRTSSPSAVRARLDANRLAVAGHSMGGGGTLRIAEQNPSLKAAVPLTPWHTDKTFNTSVPVLIVGAEADTVAPVSQHAIPFYQNLPSTTPKVYVELCNASHIAPNSNNAAISVYTISWMKLWVDNDTRYRQFLCNVNDPALCDFRTNNRHCQ", "notes": "quadruple variant of LCC; only D238C/S283C given, the other two changes (F243I, Y127G) known from Tournier et al. 2020; expression construct not described; PDB 6THT given as the ICCG structure used for modelling"}}, "key": {"[1]": {"substrate": "CCCCCC(=O)Oc1ccc([N+](=O)[O-])cc1", "experiment": "purified protein", "format": "biochemical, Marinactinospora thermotolerans", "conditions": "30°C, 20 mM Tris-HCl pH 8.0"}, "[2]": {"substrate": "CCCC(=O)Oc1ccc([N+](=O)[O-])cc1", "experiment": "purified protein", "format": "biochemical, Marinactinospora thermotolerans", "conditions": "30°C, 20 mM Tris-HCl pH 8.0"}, "[3]": {"substrate": "CC(=O)Oc1ccc([N+](=O)[O-])cc1", "experiment": "purified protein", "format": "biochemical, Marinactinospora thermotolerans", "conditions": "30°C, 20 mM Tris-HCl pH 8.0"}, "[4]": {"substrate": "CCCCCCCC(=O)Oc1ccc([N+](=O)[O-])cc1", "experiment": "purified protein", "format": "biochemical, Marinactinospora thermotolerans", "conditions": "30°C, 20 mM Tris-HCl pH 8.0"}, "[5]": {"substrate": "CCCCCCCCCCCCCCCCCC(=O)Oc1ccc([N+](=O)[O-])cc1", "experiment": "purified protein", "format": "biochemical, Marinactinospora thermotolerans", "conditions": "30°C, 20 mM Tris-HCl pH 8.0"}, "[6]": {"substrate": "CCCCCCCCCCCC(=O)Oc1ccc([N+](=O)[O-])cc1", "experiment": "purified protein", "format": "biochemical, Marinactinospora thermotolerans", "conditions": "30°C, 20 mM Tris-HCl pH 8.0"}, "[7]": {"substrate": "CCCCCCCCCCCCCC(=O)Oc1ccc([N+](=O)[O-])cc1", "experiment": "purified protein", "format": "biochemical, Marinactinospora thermotolerans", "conditions": "30°C, 20 mM Tris-HCl pH 8.0"}, "[8]": {"substrate": "CCCCCCCCCCCCCCCC(=O)Oc1ccc([N+](=O)[O-])cc1", "experiment": "purified protein", "format": "biochemical, Marinactinospora thermotolerans", "conditions": "30°C, 20 mM Tris-HCl pH 8.0"}, "[9]": {"substrate": "CCCCCCCCCC(=O)Oc1ccc([N+](=O)[O-])cc1", "experiment": "purified protein", "format": "biochemical, Marinactinospora thermotolerans", "conditions": "30°C, 20 mM Tris-HCl pH 8.0"}, "[10]": {"substrate": "O=C(O)c1ccc(C(=O)OCCO)cc1", "experiment": "HPLC substrate reduction, Michaelis-Menten fit", "format": "biochemical, Marinactinospora thermotolerans", "conditions": "40°C, 20 mM Tris-HCl pH 8.0", "description": "(§1) HPLC substrate reduction, Michaelis-Menten fit on MtCut"}, "[11]": {"substrate": "O=C(OCCO)c1ccc(C(=O)OCCO)cc1", "experiment": "HPLC substrate reduction, Michaelis-Menten fit", "format": "biochemical, Marinactinospora thermotolerans", "conditions": "40°C, 20 mM Tris-HCl pH 8.0", "description": "as §1"}, "[12]": {"substrate": "O=C(O)c1ccc(C(=O)OCCO)cc1", "experiment": "HPLC substrate reduction, Michaelis-Menten fit", "format": "biochemical, Pseudideonella sakaiensis", "conditions": "40°C, 20 mM Tris-HCl pH 8.0", "description": "(§2) HPLC substrate reduction, Michaelis-Menten fit on IsPETase"}, "[13]": {"substrate": "O=C(OCCO)c1ccc(C(=O)OCCO)cc1", "experiment": "HPLC substrate reduction, Michaelis-Menten fit", "format": "biochemical, Pseudideonella sakaiensis", "conditions": "40°C, 20 mM Tris-HCl pH 8.0", "description": "as §2"}, "[14]": {"substrate": "O=C(O)c1ccc(C(=O)OCCO)cc1", "experiment": "HPLC substrate reduction, Michaelis-Menten fit", "format": "biochemical, unidentified prokaryotic organism", "conditions": "40°C, 20 mM Tris-HCl pH 8.0", "description": "(§3) HPLC substrate reduction, Michaelis-Menten fit on ICCG"}, "[15]": {"substrate": "O=C(OCCO)c1ccc(C(=O)OCCO)cc1", "experiment": "HPLC substrate reduction, Michaelis-Menten fit", "format": "biochemical, unidentified prokaryotic organism", "conditions": "40°C, 20 mM Tris-HCl pH 8.0", "description": "as §3"}}, "data": [{"protein": "B1", "values": [{"measurement": "Km", "setting": "[1]", "result": "4610 ± 1040", "unit": "µM"}, {"measurement": "kcat", "setting": "[1]", "result": "41.7 ± 6.35", "unit": "s⁻¹"}, {"measurement": "kcat/Km", "setting": "[1]", "result": "9230 ± 900", "unit": "M⁻¹ s⁻¹"}, {"measurement": "Km", "setting": "[2]", "result": "1330 ± 150", "unit": "µM"}, {"measurement": "kcat", "setting": "[2]", "result": "14.1 ± 1.51", "unit": "s⁻¹"}, {"measurement": "kcat/Km", "setting": "[2]", "result": "10600 ± 100", "unit": "M⁻¹ s⁻¹"}, {"measurement": "Km", "setting": "[3]", "result": "550 ± 40", "unit": "µM"}, {"measurement": "kcat", "setting": "[3]", "result": "4.47 ± 0.28", "unit": "s⁻¹"}, {"measurement": "kcat/Km", "setting": "[3]", "result": "8190 ± 340", "unit": "M⁻¹ s⁻¹"}, {"measurement": "Km", "setting": "[4]", "result": "2550 ± 280", "unit": "µM"}, {"measurement": "kcat", "setting": "[4]", "result": "79.4 ± 8.75", "unit": "s⁻¹"}, {"measurement": "kcat/Km", "setting": "[4]", "result": "31100 ± 50", "unit": "M⁻¹ s⁻¹"}, {"measurement": "Km", "setting": "[5]", "result": "450 ± 20", "unit": "µM"}, {"measurement": "kcat", "setting": "[5]", "result": "14.3 ± 0.58", "unit": "s⁻¹"}, {"measurement": "kcat/Km", "setting": "[5]", "result": "31800 ± 200", "unit": "M⁻¹ s⁻¹"}, {"measurement": "Km", "setting": "[6]", "result": "1680 ± 120", "unit": "µM"}, {"measurement": "kcat", "setting": "[6]", "result": "30.5 ± 3.63", "unit": "s⁻¹"}, {"measurement": "kcat/Km", "setting": "[6]", "result": "18100 ± 1200", "unit": "M⁻¹ s⁻¹"}, {"measurement": "Km", "setting": "[7]", "result": "190 ± 40", "unit": "µM"}, {"measurement": "kcat", "setting": "[7]", "result": "9.87 ± 1.52", "unit": "s⁻¹"}, {"measurement": "kcat/Km", "setting": "[7]", "result": "51400 ± 2900", "unit": "M⁻¹ s⁻¹"}, {"measurement": "Km", "setting": "[8]", "result": "150 ± 10", "unit": "µM"}, {"measurement": "kcat", "setting": "[8]", "result": "4.79 ± 0.12", "unit": "s⁻¹"}, {"measurement": "kcat/Km", "setting": "[8]", "result": "32500 ± 1000", "unit": "M⁻¹ s⁻¹"}, {"measurement": "Km", "setting": "[9]", "result": "4930 ± 530", "unit": "µM"}, {"measurement": "kcat", "setting": "[9]", "result": "69.8 ± 5.15", "unit": "s⁻¹"}, {"measurement": "kcat/Km", "setting": "[9]", "result": "14200 ± 500", "unit": "M⁻¹ s⁻¹"}, {"measurement": "Km", "setting": "[10]", "result": "750 ± 110", "unit": "µM"}, {"measurement": "kcat", "setting": "[10]", "result": "0.13 ± 0.01", "unit": "s⁻¹"}, {"measurement": "kcat/Km", "setting": "[10]", "result": "176 ± 14", "unit": "M⁻¹ s⁻¹"}, {"measurement": "Km", "setting": "[11]", "result": "3070 ± 930", "unit": "µM"}, {"measurement": "kcat", "setting": "[11]", "result": "4.27 ± 1.15", "unit": "s⁻¹"}, {"measurement": "kcat/Km", "setting": "[11]", "result": "1410 ± 70", "unit": "M⁻¹ s⁻¹"}]}, {"protein": "B2", "values": [{"measurement": "Km", "setting": "[12]", "result": "720 ± 20", "unit": "µM"}, {"measurement": "kcat", "setting": "[12]", "result": "0.0139 ± 0.0006", "unit": "s⁻¹"}, {"measurement": "kcat/Km", "setting": "[12]", "result": "19.2 ± 0.45", "unit": "M⁻¹ s⁻¹"}, {"measurement": "Km", "setting": "[13]", "result": "4480 ± 540", "unit": "µM"}, {"measurement": "kcat", "setting": "[13]", "result": "5.95 ± 0.62", "unit": "s⁻¹"}, {"measurement": "kcat/Km", "setting": "[13]", "result": "1330 ± 20", "unit": "M⁻¹ s⁻¹"}]}, {"protein": "B3", "values": [{"measurement": "Km", "setting": "[14]", "result": "430 ± 20", "unit": "µM"}, {"measurement": "kcat", "setting": "[14]", "result": "0.0032 ± 0.0001", "unit": "s⁻¹"}, {"measurement": "kcat/Km", "setting": "[14]", "result": "6.75 ± 0.32", "unit": "M⁻¹ s⁻¹"}, {"measurement": "Km", "setting": "[15]", "result": "2580 ± 980", "unit": "µM"}, {"measurement": "kcat", "setting": "[15]", "result": "2.29 ± 0.95", "unit": "s⁻¹"}, {"measurement": "kcat/Km", "setting": "[15]", "result": "1000 ± 170", "unit": "M⁻¹ s⁻¹"}]}]}
